This note sets out measurements from publication PMC4498904, “Mutagenesis Study Reveals the Rim of Catalytic Entry Site of HDAC4 and -5 as the Major Binding Surface of SMRT Corepressor” (PLoS ONE, 2015).

Sequences and labels used below:
B1: KGC-HDAC4c (C-terminal portion of Kusabira Green protein fused with HDAC4c), wild type [human] / KGN-SRD3c (N-terminal portion of Kusabira Green protein fused with SRD3c) [human] (parent complex)
chain 1: PRFTTGLVYDTLMLKHQCTCGSSSSHPEHAGRIQSIWSRLQETGLRGKCECIRGRKATLEELQTVHSEAHTLLYGTNPLNRQKLDSKKLLGSLASVFVRLPCGGVGVDSDTIWNEVHSAGAARLAVGCVVELVFKVATGELKNGFAVVRPPGHHAEESTPMGFCYFNSVAVAAKLLQQRLSVSKILIVDWDVHHGNGTQQAFYSDPSVLYMSLHRYDDGNFFPGSGAPDEVGTGPGVGFNVNMAFTGGLDPPMGDAEYLAAFRTVVMPIASEFAPDVVLVSSGFDAVEGHPTPLGGYNLSARCFGYLTKQLMGLAGGRIVLALEGGHDLTAICDASEACVSALLGNELDPLPEKVLQQRPNANAVRSMEKVMEIHSKYWRCLQRTTSTAGRSLIEAQTCENEEAET
chain 2: EGGMSVTQCSKEDGRSSSGPPHETAAPKRTYDMMEGRVGRAISSASIEGLMGRAIPPERHSPHHLKEQHHIRGSITQGIPRSYVEAQEDYLRREAKLLKREGTPPPPPPSRDLTEAYKTQALGPLKLKPAHEGLVATVKEAGRSIHEIPREELRHTPELPLAPRPLKEGSITQGTPLKYDTGASTTGSKKHDVRSLIGSPGRTFPPVHPLDVMADARALERACY
B2: KGC-HDAC5c (C-terminal portion of Kusabira Green protein fused with HDAC5c), wild type [human] / KGN-SRD3c (N-terminal portion of Kusabira Green protein fused with SRD3c) [human] (parent complex)
chain 1: LFTTGVVYDTFMLKHQCMCGNTHVHPEHAGRIQSIWSRLQETGLLSKCERIRGRKATLDEIQTVHSEYHTLLYGTSPLNRQKLDSKKLLGPISQKMYAVLPCGGIGVDSDTVWNEMHSSSAVRMAVGCLLELAFKVAAGELKNGFAIIRPPGHHAEESTAMGFCFFNSVAITAKLLQQKLNVGKVLIVDWDIHHGNGTQQAFYNDPSVLYISLHRYDNGNFFPGSGAPEEVGGGPGVGYNVNVAWTGGVDPPIGDVEYLTAFRTVVMPIAHEFSPDVVLVSAGFDAVEGHLSPLGGYSVTARCFGHLTRQLMTLAGGRVVLALEGGHDLTAICDASEACVSALLSVELQPLDEAVLQQKPNINAVATLEKVIEIQSKHWSCVQKFAAGLGRSLREAQAGETEEAETVS
chain 2: B1 chain 2

The first assay covers variants of B1. The assay is described as follows: BiFC assay (fluorescence spectrophotometer); HEK293 cells; KGN-SRD3c (1 μg) and KGC-HDAC4c mutant (1 μg); 48 hours of transfection; whole cell lysates; parent: 8; read off a plot.
Consider chain 1 F222L, for which the response was approximately 4.1 RFU.
The same measure, in the same setting: the same measure for chain 1 G195R: approximately 4.6 RFU; for chain 1 H154Y: approximately 4.3 RFU.

The variants in a further assay derive from B2. The assay is described as follows: BiFC assay (fluorescence spectrophotometer); HEK293 cells; KGN-SRD3c (1 μg) and KGC-HDAC5c mutant (1 μg); 48 hours of transfection; whole cell lysates; parent: 9.3; read off a plot.
For chain 1 C164R, the response was approximately 4.4 RFU.
Still for that read-out and setting: in the case of chain 1 D110G it was approximately 5.1 RFU; in that of chain 1 G325V, approximately 4.1 RFU.
For the variant chain 1 G295C, the response was approximately 5 RFU.
Same read-out and setting: the same measure for chain 1 P150L: approximately 3.8 RFU.
The same measure, in the same setting: in the case of chain 1 S118P it was approximately 3.9 RFU.
On the same count and under the same terms, the same measure for chain 1 G219W: approximately 3.9 RFU; for chain 1 F222L: approximately 3.9 RFU.
Regarding chain 1 G127E, the response was approximately 3.7 RFU.
On the same count and under the same terms, the same measure for chain 1 H154R: approximately 4.9 RFU.
Still for that read-out and setting: the same measure for chain 1 G195C: approximately 3.9 RFU; for chain 1 F163S: approximately 5.8 RFU.
As to chain 1 N196D, the response was approximately 3.7 RFU.
Still for that read-out and setting: in the case of chain 1 P151S it was approximately 5.9 RFU; in that of chain 1 G152E, approximately 4.1 RFU; in that of chain 1 G197D, approximately 4 RFU.
The same measure, in the same setting: in the case of chain 1 G326C it was approximately 4 RFU.
